Measurements taken from patent US20090226432A1 (MICROMET, published 2009).

T1: soluble human CEA antigen (human, UniProt P06731 35-685, limits assumed, biotinylated with EZ-Link Sulfo NHS-LC-LC-Biotin in the ELISA (not in the cytotoxicity competition assays))
T1 construct: also called soluble CEA; soluble biotinylated human CEA (Abcam)
T1 sequence: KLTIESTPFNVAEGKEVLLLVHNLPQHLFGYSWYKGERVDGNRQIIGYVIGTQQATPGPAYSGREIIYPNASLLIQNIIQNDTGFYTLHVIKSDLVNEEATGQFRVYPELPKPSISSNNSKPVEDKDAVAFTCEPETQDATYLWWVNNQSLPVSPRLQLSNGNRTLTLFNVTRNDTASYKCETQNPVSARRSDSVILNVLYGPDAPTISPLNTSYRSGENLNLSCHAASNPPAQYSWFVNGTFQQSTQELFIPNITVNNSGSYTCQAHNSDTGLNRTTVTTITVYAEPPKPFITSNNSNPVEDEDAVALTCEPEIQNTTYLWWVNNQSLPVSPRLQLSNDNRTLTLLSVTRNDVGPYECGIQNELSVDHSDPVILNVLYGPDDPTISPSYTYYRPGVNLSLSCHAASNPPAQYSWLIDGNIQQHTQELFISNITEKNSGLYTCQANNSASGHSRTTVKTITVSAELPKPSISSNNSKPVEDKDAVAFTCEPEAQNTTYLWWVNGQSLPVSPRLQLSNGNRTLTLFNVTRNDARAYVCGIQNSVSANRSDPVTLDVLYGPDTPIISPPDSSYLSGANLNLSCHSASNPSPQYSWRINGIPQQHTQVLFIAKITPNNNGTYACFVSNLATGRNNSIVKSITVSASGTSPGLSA


Legend:
[1] = molecular target: T1, soluble human CEA antigen; experiment: refers to Examples 2 and 3 (flow cytometry, ELISA)
[2] = molecular target: T1, soluble human CEA antigen; experiment: direct ELISA, biotinylated soluble CEA on streptavidin plate; 0.5 and 5 ug/ml
Experimental: The direct ELISA to determine the specificity of CEA×CD3 bispecific single chain antibody against soluble human CEA was carried out according to standard procedures. Briefly, 50 μl/well PBS or soluble biotinylated human CEA (Abcam; 5 μg/ml in 1×PBS) were immobilized on a 96-well streptavidin-coated ELISA plate (Nunc) by incubating at 4° C. for about 16 hours. After washing with 200 μl water per well 200 μl of blocking solution (PBS/3% BSA) was added. After blocking for 1 h at room temperature the blocking solution was removed. All subsequent washing (200 μl/well of 1×PBS/0.05% (v/v) Tween20) and incubation steps were performed at room temperature. After washing once, the CEAI VHVL×SEQ ID NO.77 VHVL (SEQ ID NO. 8; anti-CEA part derived from mAb A5B7), CEAII VHVL×SEQ ID NO.77 VHVL (SEQ ID NO. 10; anti-CEA part derived from mAb T84.66), and CEAIII VHVL×SEQ ID NO.77 VHVL (SEQ ID NO. 14; anti-CEA part derived from mAb MFE-23) bispecific single chain antibodies, and mouse monoclonal antibody CEA/CD66 Ab-3 (Col-1; Dunn) were incubated in different concentrations (0.5 μg/ml and 5 μg/ml in 1×PBS; 50 μl/well) for 1 hour. 1×PBS (50 μl/well) was added as a control for unspecific binding. 3 washing steps were followed by adding 50 μl/well Penta-His IgG (Qiagen; 2 μg/ml in 1×PBS) for detection of the His-tagged bispecific single chain antibodies. Subsequently, the wells were washed 3 times and incubated with 50 μl of a horseradish peroxidase-labelled goat anti-mouse Fc gamma-specific antibody (Jackson ImmuneResearch; 1:1000 in 1×PBS) for 1 hour. After washing 3 times the ELISA was developed by adding ABTS substrate solution (Roche) and the absorbance was measured at a wavelength of 405 nm.

[3] = molecular target: T1, soluble human CEA antigen; experiment: refers to the ELISA of FIG. 2

Binder | binding result [2] | binding result [3] | other results
CEA III VLVH x SEQ ID NO. 77 VHVL (bispecific antibody, Bispecific single chain antibody; anti-CEA part from mAb MFE-23; also called CEA III-LH) ENVLTQSPAIMSASPGEKVTITCSASSSVSYMHWFQQKPGTSPKLWIYSTSNLASGVPARFSGSGSGTSYSLTISRMEAEDAATYYCQQRSSYPLTFGAGTKLELKGGGGSGGGGSGGGGSQVKLQQSGAELVRSGTSVKLSCTASGFNIKDSYMHWLRQGPEQGLEWIGWIDPENGDTEYAPKFQGKATFTTDTSSNTAYLQLSSLTSEDTAVYYCNEGTPTGPYYFDYWGQGTTVTVSSGGGGSDVQLVQSGAEVKKPGASVKVSCKASGYTFTRYTMHWVRQAPGQGLEWIGYINPSRGYTNYADSVKGRFTITTDKSTSTAYMELSSLRSEDTATYYCARYYDDHYCLDYWGQGTTVTVSSGEGTSTGSGGSGGSGGADDIVLTQSPATLSLSPGERATLSCRASQSVSYMNWYQQKPGKAPKRWIYDTSKVASGVPARFSGSGSGTDYSLTINSLEAEDAATYYCQQWSSNPLTFGGGTKVEIK | – | – | binding result [1]: binds
CEA III VHVL x SEQ ID NO. 77 VHVL (bispecific antibody, Bispecific single chain antibody; anti-CEA part from mAb MFE-23; also called CEA III-HL) QVKLQQSGAELVRSGTSVKLSCTASGFNIKDSYMHWLRQGPEQGLEWIGWIDPENGDTEYAPKFQGKATFTTDTSSNTAYLQLSSLTSEDTAVYYCNEGTPTGPYYFDYWGQGTTVTVSSGGGGSGGGGSGGGGSENVLTQSPAIMSASPGEKVTITCSASSSVSYMHWFQQKPGTSPKLWIYSTSNLASGVPARFSGSGSGTSYSLTISRMEAEDAATYYCQQRSSYPLTFGAGTKLELKSGGGGSDVQLVQSGAEVKKPGASVKVSCKASGYTFTRYTMHWVRQAPGQGLEWIGYINPSRGYTNYADSVKGRFTITTDKSTSTAYMELSSLRSEDTATYYCARYYDDHYCLDYWGQGTTVTVSSGEGTSTGSGGSGGSGGADDIVLTQSPATLSLSPGERATLSCRASQSVSYMNWYQQKPGKAPKRWIYDTSKVASGVPARFSGSGSGTDYSLTINSLEAEDAATYYCQQWSSNPLTFGGGTKVEIK | binds | – | –
CEA I VLVH x SEQ ID NO. 77 VHVL (bispecific antibody, Bispecific single chain antibody; anti-CEA part from murine mAb A5B7; also called CEA I-LH) DIELTQSPAILSASPGEKVTMTCRASSSVTYIHWYQQKPGSSPKSWIYATSNLASGVPARFSGSGSGTSYSLTISRVEAEDAATYYCQHWSSKPPTFGGGTKLEIKGGGGSGGGGSGGGGSQVQLQESGGGLVQPGGSLRLSCATSGFTFTDYYMNWVRQPPGKALEWLGFIGNKANGYTTEYSASVKGRFTISRDKSQSILYLQMNTLRAEDSATYYCTRDRGLRFYFDYWGQGTTVTVSSGGGGSDVQLVQSGAEVKKPGASVKVSCKASGYTFTRYTMHWVRQAPGQGLEWIGYINPSRGYTNYADSVKGRFTITTDKSTSTAYMELSSLRSEDTATYYCARYYDDHYCLDYWGQGTTVTVSSGEGTSTGSGGSGGSGGADDIVLTQSPATLSLSPGERATLSCRASQSVSYMNWYQQKPGKAPKRWIYDTSKVASGVPARFSGSGSGTDYSLTINSLEAEDAATYYCQQWSSNPLTFGGGTKVEIK | – | binds | –
SEQ ID NO. 77 VHVL x CEA I VHVL (bispecific antibody, Bispecific single chain antibody, anti-CD3 part N-terminal, anti-CEA part from mAb A5B7) DVQLVQSGAEVKKPGASVKVSCKASGYTFTRYTMHWVRQAPGQGLEWIGYINPSRGYTNYADSVKGRFTITTDKSTSTAYMELSSLRSEDTATYYCARYYDDHYCLDYWGQGTTVTVSSGEGTSTGSGGSGGSGGADDIVLTQSPATLSLSPGERATLSCRASQSVSYMNWYQQKPGKAPKRWIYDTSKVASGVPARFSGSGSGTDYSLTINSLEAEDAATYYCQQWSSNPLTFGGGTKVEIKSGGGGSQVQLQESGGGLVQPGGSLRLSCATSGFTFTDYYMNWVRQPPGKALEWLGFIGNKANGYTTEYSASVKGRFTISRDKSQSILYLQMNTLRAEDSATYYCTRDRGLRFYFDYWGQGTTVTVSSGGGGSGGGGSGGGGSDIELTQSPAILSASPGEKVTMTCRASSSVTYIHWYQQKPGSSPKSWIYATSNLASGVPARFSGSGSGTSYSLTISRVEAEDAATYYCQHWSSKPPTFGGGTKLEIK | – | binds | –
CEA II VHVL x SEQ ID NO. 77 VHVL (bispecific antibody, Bispecific single chain antibody; anti-CEA part from mAb T84.66; also called CEA II HL) EVQLQQSGAELVEPGASVKLSCTASGFNIKDTYMHWVKQRPEQGLEWIGRIDPANGNSKYVPKFQGKATITADTSSNTAYLQLTSLTSEDTAVYYCAPFGYYVSDYAMAYWGQGTSVTVSSGGGGSGGGGSGGGGSDIVLTQSPASLAVSLGQRATMSCRAGESVDIFGVGFLHWYQQKPGQPPKLLIYRASNLESGIPVRFSGTGSRTDFTLIIDPVEADDVATYYCQQTNEDPYTFGGGTKLEIKSGGGGSDVQLVQSGAEVKKPGASVKVSCKASGYTFTRYTMHWVRQAPGQGLEWIGYINPSRGYTNYADSVKGRFTITTDKSTSTAYMELSSLRSEDTATYYCARYYDDHYCLDYWGQGTTVTVSSGEGTSTGSGGSGGSGGADDIVLTQSPATLSLSPGERATLSCRASQSVSYMNWYQQKPGKAPKRWIYDTSKVASGVPARFSGSGSGTDYSLTINSLEAEDAATYYCQQWSSNPLTFGGGTKVEIK | binds | – | –
SEQ ID NO. 77 VHVL x CEA I VLVH (bispecific antibody, Bispecific single chain antibody, anti-CD3 part N-terminal, anti-CEA part from mAb A5B7) DVQLVQSGAEVKKPGASVKVSCKASGYTFTRYTMHWVRQAPGQGLEWIGYINPSRGYTNYADSVKGRFTITTDKSTSTAYMELSSLRSEDTATYYCARYYDDHYCLDYWGQGTTVTVSSGEGTSTGSGGSGGSGGADDIVLTQSPATLSLSPGERATLSCRASQSVSYMNWYQQKPGKAPKRWIYDTSKVASGVPARFSGSGSGTDYSLTINSLEAEDAATYYCQQWSSNPLTFGGGTKVEIKSGGGGSDIELTQSPAILSASPGEKVTMTCRASSSVTYIHWYQQKPGSSPKSWIYATSNLASGVPARFSGSGSGTSYSLTISRVEAEDAATYYCQHWSSKPPTFGGGTKLEIKGGGGSGGGGSGGGGSQVQLQESGGGLVQPGGSLRLSCATSGFTFTDYYMNWVRQPPGKALEWLGFIGNKANGYTTEYSASVKGRFTISRDKSQSILYLQMNTLRAEDSATYYCTRDRGLRFYFDYWGQGTTVTVSS | – | binds | –
CEA I VHVL x SEQ ID NO. 77 VHVL (bispecific antibody, Bispecific single chain antibody; also called CEA I-HL) QVQLQESGGGLVQPGGSLRLSCATSGFTFTDYYMNWVRQPPGKALEWLGFIGNKANGYTTEYSASVKGRFTISRDKSQSILYLQMNTLRAEDSATYYCTRDRGLRFYFDYWGQGTTVTVSSGGGGSGGGGSGGGGSDIELTQSPAILSASPGEKVTMTCRASSSVTYIHWYQQKPGSSPKSWIYATSNLASGVPARFSGSGSGTSYSLTISRVEAEDAATYYCQHWSSKPPTFGGGTKLEIKSGGGGSDVQLVQSGAEVKKPGASVKVSCKASGYTFTRYTMHWVRQAPGQGLEWIGYINPSRGYTNYADSVKGRFTITTDKSTSTAYMELSSLRSEDTATYYCARYYDDHYCLDYWGQGTTVTVSSGEGTSTGSGGSGGSGGADDIVLTQSPATLSLSPGERATLSCRASQSVSYMNWYQQKPGKAPKRWIYDTSKVASGVPARFSGSGSGTDYSLTINSLEAEDAATYYCQQWSSNPLTFGGGTKVEIK | binds | – | –
